Measurements as given in FireProtDB (doi:10.1016/j.bbapap.2014.10.010).

Details: Homo sapiens; pH 7.4; Thermal; DSC; Hepes 20 mM; NaCl 200 mM; transition: 2; reversible: No; whole UniProt chain shown

B1: Alanine--glyoxylate aminotransferase wild type, P21549 (protein)
chain: MASHKLLVTPPKALLKPLSIPNQLLLGPGPSNLPPRIMAAGGLQMIGSMSKDMYQIMDEIKEGIQYVFQTRNPLTLVISGSGHCALEAALVNVLEPGDSFLVGANGIWGQRAVDIGERIGARVHPMTKDPGGHYTLQEVEEGLAQHKPVLLFLTHGESSTGVLQPLDGFGELCHRYKCLLLVDSVASLGGTPLYMDRQGIDILYSGSQKALNAPPGTSLISFSDKAKKKMYSRKTKPFSFYLDIKWLANFWGCDDQPRMYHHTIPVISLYSLRESLALIAEQGLENSWRQHREAAAYLHGRLQALGLQLFVKDPALRLPTVTTVAVPAGYDWRDIVSYVIDHFDIEIMGGLGPSTGKVLRIGLLGCNATRENVDRVTEALRAALQHCPKKKL
For B1, the Tm was 82.1 °C and the “unfolding enthalpy (calorimetric)” value was 547 kcal/mol.
